According to patent US20190309034A1 (Boehringer Ingelheim, published 2019):

Columns and labels:
[1] = target: T1, Human membrane-bound BAFF (mbBAFF) (human, UniProt Q9Y275 1-285); experiment: cell-based or functional assay
[2] = target: T2, Recombinant soluble trimeric human BAFF (furin-cleaved human BAFF 134-285) (human, UniProt Q9Y275 134-285); experiment: cell-based or functional assay
[3] = target: T3, Recombinant soluble 60-mer human BAFF (His-HuBAFF 134-285) (human, UniProt Q9Y275 134-285); experiment: cell-based or functional assay
[4] = target: T2, Recombinant soluble trimeric human BAFF …; experiment: cell-based or functional assay; remark: listed apart in the source
[5] = target: T3, Recombinant soluble 60-mer human BAFF …; experiment: cell-based or functional assay; remark: listed apart in the source
[6] = target: T2, Recombinant soluble trimeric human BAFF …; experiment: SPR, antibody captured on Protein A/G, soluble trimeric BAFF flowed over, 1:1 Langmuir global fit, apparent affinity (at detection limit)
Procedure: Apparent binding affinities were evaluated using surface plasmon resonance where the antibodies were captured at different surface densities on a Protein A/G surface. Soluble trimeric BAFF at different concentrations were flowed over the captured antibody. Clinical reference antibodies (Reference 1 comprising SEQ ID NOS: 98 and 116) and Reference 2 comprising SEQ ID NOS: 99 and 117) were used as comparators.

[7] = target: T2, Recombinant soluble trimeric human BAFF …; experiment: cell-based or functional assay; remark: listed apart in the source
[8] = target: T1, Human membrane-bound BAFF (mbBAFF); experiment: cell-based or functional assay; remark: listed apart in the source

B1: 1094C4E6 (antibody, V domains shown)
VH: EVQLQQSGAELVRPGASVKLSCTASGFNIKDDYMHWVKQTPEQGLEWIGRIDPAYGNGKYVPKFQDKATITADTSSNTAYLQLSSLTSEDTAVYYCARRYYAVSSVDYALDYWGQGTSVTVSS
VL: DIVMTQSHKFMSTSVGDRVTITCKASQDVATAVAWYQQKPGQSPKLLIYWASTRHTGVPDRFTGSGSGTDFTLTISNVQSEDLANYFCQQYSNYPYTFGGGTTLEIK
- Potent mbBAFF Neutralization IC50 [1]: 2.56 nM
- Potent mbBAFF Neutralization IC90 [1]: 175 nM
- Soluble trimeric huBAFF (50 pM) Neutralization IC50 [2]: 384 pM
- Soluble trimeric huBAFF (50 pM) Neutralization IC90 [2]: 1100 pM
- Soluble 60-mer huBAFF (4 pM) Neutralization IC50 [3]: 4050 pM
- Soluble 60-mer huBAFF (4 pM) Neutralization IC90 [3]: 20900 pM

B2: 1002E8A6 (antibody, V domains shown)
VH: EVQLQQSGPELVKPGASVKMSCKASGYTITSYVMHWVKQKPGQGLEWIGYINPNNDGTKYNEKFKGKATLTSDKSSNTAYMELSSLTSEDSAVYYCARGDYSNYFYWYFDVWGAGTTVTVSS
VL: DIKMTQSPSSMYASLGERVTITCKASQDINSYLTWFQQKPGKSPETLIYRANRLVSGVPSRFSGSGSGQDYSLTISSLEYEDMGIYSCLQYDEFPYTFGGGTKLEIK
- Potent mbBAFF Neutralization IC50 [1]: 0.141 nM
- Potent mbBAFF Neutralization IC90 [1]: 2.09 nM
- Soluble trimeric huBAFF (50 pM) Neutralization IC50 [2]: 107 pM
- Soluble trimeric huBAFF (50 pM) Neutralization IC90 [2]: 824 pM
- Soluble 60-mer huBAFF (4 pM) Neutralization IC50 [3]: 29 pM
- Soluble 60-mer huBAFF (4 pM) Neutralization IC90 [3]: 79 pM

B3: 13J018-1A4 (antibody, V domains shown)
VH: QVQLQQSGPEVVRPGASVKISCKAPDHIFSIHWMQWVRQRPGPGLEWIGEIFPGSGTTDYNEKFKGKATVTVDRGSRSAYMQFNSLTSEDSAVYFCASGAFDYWGQGTTLTVSS
VL: DIQMTQSPSSLSASLGERVSLTCRASQDIGNRLNWLQQEPDGTIKRLIYATSSLDSGVPKRFSGSRSGSDYSLTISSLESEDFVDYYCLQYASSPFTFGTGTKLEIK
notes: Mouse lead antibody (hybridoma)
- Soluble trimeric huBAFF (52 pM) Neutralization IC90 [4]: 305 pM
- Soluble 60-mer huBAFF (4.2 pM) Neutralization IC90 [5]: 23 pM
- Kd [6]: < 0.01 nM
- IC50 (neutralisation of soluble trimeric huBAFF activation of human BAFFR, luciferase reporter CHO cells) [7]: 0.11 nM
- IC90 (neutralisation of soluble trimeric huBAFF activation of human BAFFR, luciferase reporter CHO cells) [7]: 0.35 nM
- IC50 (neutralisation of mbBAFF activation of human BAFFR, fixed mbBAFF-CHO mixed with luciferase reporter BAFFR-CHO cells) [8]: 0.29 nM

B4: Ch-13J0-18-1A4 (antibody, V domains shown)
VH: QVQLQQSGPEVVRPGASVKISCKAPDHIFSIHWMQWVRQRPGPGLEWIGEIFPGSGTTDYNEKFKGKATVTVDRGSRSAYMQFNSLTSEDSAVYFCASGAFDYWGQGTTLTVSS
VL: DIQMTQSPSSLSASLGERVSLTCRASQDIGNRLNWLQQEPDGTIKRLIYATSSLDSGVPKRFSGSRSGSDYSLTISSLESEDFVDYYCLQYASSPFTFGTGTKLEIK
- IC50 (neutralisation of soluble trimeric huBAFF activation of human BAFFR, luciferase reporter CHO cells) [7]: 0.16 nM
- IC90 (neutralisation of soluble trimeric huBAFF activation of human BAFFR, luciferase reporter CHO cells) [7]: 0.45 nM
- IC50 (neutralisation of mbBAFF activation of human BAFFR, fixed mbBAFF-CHO mixed with luciferase reporter BAFFR-CHO cells) [8]: 0.41 nM

B5: 1070A6B7 (antibody, V domains shown)
VH: QVPLQQPGAEMVRPGASMRLSCKASGYTFPGYWMHWVKQRPRQGLEWIAKIDPSDSETHYNQNFKDKATLTVDKYSNTVYMQLNSLTSEDSAVYYCANEGWDSLTKVWFGWWGQGTLVTVSA
VL: DVVMTQTPLSLPVSLGDQASISCRCSQSLVHSNGNTYLHWYLQKPGQSPKLLIYKVSDRFSGVPDRFSGSGSGTDFTLRISRVEADDLGVYFCSQSTHVPLTFGAGTKLELK
- Potent mbBAFF Neutralization IC50 [1]: 0.147 nM
- Potent mbBAFF Neutralization IC90 [1]: 1.06 nM
- Soluble trimeric huBAFF (50 pM) Neutralization IC50 [2]: 43 pM
- Soluble trimeric huBAFF (50 pM) Neutralization IC90 [2]: 677 pM
- Soluble 60-mer huBAFF (4 pM) Neutralization IC50 [3]: 20 pM
- Soluble 60-mer huBAFF (4 pM) Neutralization IC90 [3]: 56 pM

B6: 206G9A10 (antibody, V domains shown)
VH: QVQLQQPGAELVKPGASVKLSCKASGYTFSIFCIHWVQQRPGRGLEWIGRIDPSSGGTKYNEKFESKATLTVDKSSSTAYMQLSSLTSEDSAVYYCARGEDLLVRTDAMDYWGQGTSVTVSS
VL: DIVMTQSQKFMSTTVGDRVSITCKASQNAGAAVAWFQQKPGQSPKLLIYSASNRYTGVPDRFTGSGSGTDFTLTISNVQSEDLADYICQQYRSYPRTFGGGTKLEIK
notes: as for B3
- Soluble trimeric huBAFF (52 pM) Neutralization IC90 [4]: 35.1 pM
- Soluble 60-mer huBAFF (4.2 pM) Neutralization IC90 [5]: 0.2 pM
- Kd [6]: < 0.01 nM

B7: 227D3B11 (antibody, V domains shown)
VH: QVQLQQPGAELVKPGASVKLSCKASGYSFSTFFIHWIQQRPGRGLEWIGRIDPNSGGTKYNEKFESKATLTVDKPSSTAYMHLSSLTSEDSAVYYCARGEDLLIRTDAMDYWGQGTSVTVSS
VL: DIVMTQSQKIMSTTVGDRVSITCKASQNAGIDVAWFQQKPRQSPKLLIFSTSNRYTGVPDRFAGSGSGTDFTLTIYNVQSEDLADYFCLQYRSYPRTFGGGTKLEIK
notes: as for B3
- Soluble trimeric huBAFF (52 pM) Neutralization IC90 [4]: 128 pM
- Soluble 60-mer huBAFF (4.2 pM) Neutralization IC90 [5]: 1.6 pM
- Kd [6]: < 0.01 nM

B8: Ch-235F5B9 (antibody, V domains shown)
VH: QVQLQQPGAELVKPGASVKLSCKASGYSFSTFFIHWIQQRPGRGLEWIGRIDPNSGATKYNEKFESKATLTVDKPSSTAYMHLSSLTSEDSAVYYCARGEDLLIRTDALDYWGQGTSVTVSS
VL: DIVMTQSQKIMSTTVGDRVSITCKASQNAGIDVAWFQQKPRQSPKLLIFSKSNRYTGVPDRFAGSGSGTDFTLTIYNVQSEDLADYFCLQYRSYPRTFGGGTKLEIK
- IC50 (neutralisation of soluble trimeric huBAFF activation of human BAFFR, luciferase reporter CHO cells) [7]: 0.13 nM
- IC90 (neutralisation of soluble trimeric huBAFF activation of human BAFFR, luciferase reporter CHO cells) [7]: 0.27 nM
- IC50 (neutralisation of mbBAFF activation of human BAFFR, fixed mbBAFF-CHO mixed with luciferase reporter BAFFR-CHO cells) [8]: 0.19 nM

B9: 250E5A11 (antibody, V domains shown)
VH: QVQLQQPGTELVKPGASVKLSCKASGYTFSIFCIHWVQQRPGRGLEWIGRIDPSSGGTKYNERFENKATLTVDKSSSTAYMQLSSLTFEDSAVYYCARGEDLLVRTDAMDYWGQGTSVTVSS
VL: DIVMTQSQKFMSTTVGDRVSITCKASQNAGAAVAWFQQKPGQSPKLLIYSASNRYTGVPDRFTGSGSGTDFTLTITNVQSEDLADYICQQYRSFPRTFGGGTKLEIK
notes: as for B3
- Soluble trimeric huBAFF (52 pM) Neutralization IC90 [4]: 97.5 pM
- Soluble 60-mer huBAFF (4.2 pM) Neutralization IC90 [5]: 0.3 pM
- Kd [6]: < 0.01 nM

B10: 227D5A7 (antibody, V domains shown)
VH: QVQLQQPGAELVKPGASVKLSCKASGYTFSIFCVHWVQQRPGRGLEWIGRIDPSSGGTKYNEKFESKATLTVDKSSSTAYMQLSSLTPEDSAVYYCARGEDLLVRTDALDYWGQGSSVTVSS
VL: DIVMTQSQKFMSTTVGDRVSITCKASQNAGAAVAWFQQKPGQSPKLLIYSASNRYTGVPDRFTGSGSGTDFTLTISNVQSEDLADYICQQYRSFPRTFGGGTKLEIK
notes: as for B3
- Soluble trimeric huBAFF (52 pM) Neutralization IC90 [4]: 56.8 pM
- Soluble 60-mer huBAFF (4.2 pM) Neutralization IC90 [5]: 0.8 pM
- Kd [6]: < 0.01 nM

B11: 235F5B9 (antibody, V domains shown)
VH: QVQLQQPGAELVKPGASVKLSCKASGYSFSTFFIHWIQQRPGRGLEWIGRIDPNSGATKYNEKFESKATLTVDKPSSTAYMHLSSLTSEDSAVYYCARGEDLLIRTDALDYWGQGTSVTVSS
VL: DIVMTQSQKIMSTTVGDRVSITCKASQNAGIDVAWFQQKPRQSPKLLIFSKSNRYTGVPDRFAGSGSGTDFTLTIYNVQSEDLADYFCLQYRSYPRTFGGGTKLEIK
notes: as for B3
- Soluble trimeric huBAFF (52 pM) Neutralization IC90 [4]: 107 pM
- Soluble 60-mer huBAFF (4.2 pM) Neutralization IC90 [5]: 2.2 pM
- Kd [6]: < 0.01 nM
- IC50 (neutralisation of soluble trimeric huBAFF activation of human BAFFR, luciferase reporter CHO cells) [7]: 0.11 nM
- IC90 (neutralisation of soluble trimeric huBAFF activation of human BAFFR, luciferase reporter CHO cells) [7]: 0.21 nM
- IC50 (neutralisation of mbBAFF activation of human BAFFR, fixed mbBAFF-CHO mixed with luciferase reporter BAFFR-CHO cells) [8]: 0.18 nM

B12: 217H12A7 (antibody, V domains shown)
VH: QVQLQQPGAELVKPGASVKLSCKASGYTFSTFLIHWVQQRPGRGLEWIGRIDPNSGGTKYNEKFERKVTLTVDKPSSTAYMQLSSLTSEDSAVYYCARGEDLLLRTDAMDYWGQGTSVTVSS
VL: DIVMTQSQKFMSTTVGDRVSITCKASQNAGTAVAWFQQKPGQSPKLLIYSAFNRYTGVPDRFTGSGSGTDFTLTISNMQSEDLADYICQQYRSYPRTFGGGTKLEIK
notes: as for B3
- Soluble trimeric huBAFF (52 pM) Neutralization IC90 [4]: 129 pM
- Soluble 60-mer huBAFF (4.2 pM) Neutralization IC90 [5]: 13.4 pM
- Kd [6]: < 0.01 nM

B13: 214G4B7 (antibody, V domains shown)
VH: QVQLQQPGAEFVKPGASVKLSCKASGYSFSTFCIHWVQQRPGRGLEWIGRIDPNSGGTKYNEKFESKATLTIDKPSSTAYVHLSSLTSEDSAVYYCARGEDLLIRTDAMDYWGQGTSVTVSS
VL: DIVMTQSQKFMSTTVGDRVSITCKASQNAGTAVAWFQQKPGQSPKLLIFSTSNRYTGVPDRFTGSGSGTDFTLTISNMQSEDLADYFCLQYRSYPRTFGGGTKLEIK
notes: as for B3
- Soluble trimeric huBAFF (52 pM) Neutralization IC90 [4]: 296 pM
- Soluble 60-mer huBAFF (4.2 pM) Neutralization IC90 [5]: 3 pM
- Kd [6]: < 0.01 nM

B14: 210D9B8 (antibody, V domains shown)
VH: QVQLQQPGTEFVKPGASVKLSCEASGYTFITYWMHWVKQRPGRGLEWIGGIDPNSGVIKYNEKFKSKATLTVDKPSSTAYMQLSSLTSEDSAVYYCARGEDLLIRTDAMDYWGQGTSVTVSS
VL: DIVMTQSQKFVSTTLGDRVSITCKASQSVGIAVAWYQQKPGHSPNLLIFSTSNRYTGVPDRFTGSGSGTDFTLTISDVQSEDLADYFCQQYSRYPRTFGGGTKLEIK
notes: as for B3
- Soluble trimeric huBAFF (52 pM) Neutralization IC90 [4]: 156 pM
- Soluble 60-mer huBAFF (4.2 pM) Neutralization IC90 [5]: 14 pM
- Kd [6]: < 0.01 nM
